From patent US20240141042A1 (INNATE PHARMA, published 2024)
Residue numbers refer to the chain shown, from its start. Names and notes keep the numbering of the source.

B1: NKp46-1 (antibody, V domains shown)
VH: QVQLQQSGPELVKPGASVKMSCKASGYTFTDYVINWGKQRSGQGLEWIGEIYPGSGTNYYNEKFKAKATLTADKSSNIAYMQLSSLTSEDSAVYFCARRGRYGLYAMDYWGQGTSVTVSS
VL: DIQMTQTTSSLSASLGDRVTISCRASQDISNYLNWYQQKPDGTVKLLIYYTSRLHSGVPSRFSGSGSGTDYSLTINNLEQEDIATYFCQQGNTRPWTFGGGTKLEIK
notes: also called Antibody NKp46-1; parental human IgG1 chimeric antibody NKp46-1
B2: NKp46-9 (antibody, V domains shown)
VH: DVQLQESGPGLVKPSQSLSLTCTVTGYSITSDYAWNWIRQFPGNKLEWMGYITYSGSTNYNPSLKSRISITRDTSKNQFFLQLNSVTTEDTATYYCARCWDYALYAMDCWGQGTSVTVSS
VL: DIQMTQSPASLSASVGETVTITCRTSENIYSYLAWCQQKQGKSPQLLVYNAKTLAEGVPSRFSGSGSGTHFSLKINSLQPEDFGIYYCQHHYDTPLTFGAGTKLELK
notes: not in the list MOLECULES as an antibody; also called antibody NKp46-9; monoclonal antibody NKp46-9
B3: CD19-F9A-NKp46-3 (bispecific antibody, human IgG1, kappa)
chain 1: not shown
chain 2: not shown
chain 3: DIVMTQSPATLSVTPGDRVSLSCRASQSISDYLHWYQQKSHESPRLLIKYASQSISGIPSRFSGSGSGSDFTLSINSVEPEDVGVYYCQNGHSFPLTFGAGTKLELKASTKGPSVFPLAPSSKSTSGGTAALGCLVKDYFPEPVTVSWNSGALTSGVHTFPAVLQSSGLYSLSSVVTVPSSSLGTQTYICNVNHKPSNTKVDKRVEPKSCDKTH
notes: Heterotrimer with monomeric Fc (tandem CH3, N297S) and wild-type hinge cysteines
B4: CD19-F4-NKp46-3 (bispecific antibody)
chain: DIQLTQSPASLAVSLGQRATISCKASQSVDYDGDSYLNWYQQIPGQPPKLLIYDASNLVSGIPPRFSGSGSGTDFTLNIHPVEKVDAATYHCQQSTEDPWTFGGGTKLEIKGGGGSGGGGSGGGGSQVQLQQSGAELVRPGSSVKISCKASGYAFSSYWMNWVKQRPGQGLEWIGQIWPGDGDTNYNGKFKGKATLTADESSSTAYMQLSSLASEDSAVYFCARRETTTVGRYYYAMDYWGQGTTVTVSSGGGSSAPELLGGPSVFLFPPKPKDTLMISRTPEVTCVVVDVSHEDPEVKFNWYVDGVEVHNAKTKPREEQYSSTYRVVSVLTVLHQDWLNGKEYKCKVSNKALPAPIEKTISKAKGQPREPQVYTLPPSREEMTKNQVSLTCLVKGFYPSDIAVEWESNGQPENNYKTTPPVLDSDGSFFLYSKLTVDKSRWQQGNVFSCSVMHEALHNHYTQKSLSLSPGGGGGSGGGGSGGGGSGQPREPQVYTLPPSREEMTKNQVSLTCLVKGFYPSDIAVEWESNGQPENNYKTTPPVLDSDGSFFLYSKLTVDKSRWQQGNVFSCSVMHEALHNHYTQKSLSLSPGSTGSEVQLQQSGPELVKPGASVKISCKTSGYTFTEYTMHWVKQSHGKSLEWIGGISPNIGGTSYNQKFKGKATLTVDKSSSTAYMELRSLTSEDSAVYYCARRGGSFDYWGQGTTLTVSSVEGGSGGSGGSGGSGGVDDIVMTQSPATLSVTPGDRVSLSCRASQSISDYLHWYQQKSHESPRLLIKYASQSISGIPSRFSGSGSGSDFTLSINSVEPEDVGVYYCQNGHSFPLTFGAGTKLELK
notes: Single chain with tandem CH3 and N297S
B5: CD19-F1-NKp46-4 (bispecific antibody)
chain: DIQLTQSPASLAVSLGQRATISCKASQSVDYDGDSYLNWYQQIPGQPPKLLIYDASNLVSGIPPRFSGSGSGTDFTLNIHPVEKVDAATYHCQQSTEDPWTFGGGTKLEIKGGGGSGGGGSGGGGSQVQLQQSGAELVRPGSSVKISCKASGYAFSSYWMNWVKQRPGQGLEWIGQIWPGDGDTNYNGKFKGKATLTADESSSTAYMQLSSLASEDSAVYFCARRETTTVGRYYYAMDYWGQGTTVTVSSGGGSSAPELLGGPSVFLFPPKPKDTLMISRTPEVTCVVVDVSHEDPEVKFNWYVDGVEVHNAKTKPREEQYNSTYRVVSVLTVLHQDWLNGKEYKCKVSNKALPAPIEKTISKAKGQPREPQVYTKPPSREEMTKNQVSLSCLVKGFYPSDIAVEWESNGQPENNYKTTVPVLDSDGSFRLASYLTVDKSRWQQGNVFSCSVMHEALHNHYTQKSLSLSPGSTGSQVQLQQSAVELARPGASVKMSCKASGYTFTSFTMHWVKQRPGQGLEWIGYINPSSGYTEYNQKFKDKTTLTADKSSSTAYMQLDSLTSDDSAVYYCVRGSSRGFDYWGQGTLVTVSAVEGGSGGSGGSGGSGGVDDIQMIQSPASLSVSVGETVTITCRASENIYSNLAWFQQKQGKSPQLLVYAATNLADGVPSRFSGSGSGTQYSLKINSLQSEDFGIYYCQHFWGTPRTFGGGTKLEIK
notes: Single chain F1 format
B6: CD19-F1-NKp46-3 (bispecific antibody)
chain: DIQLTQSPASLAVSLGQRATISCKASQSVDYDGDSYLNWYQQIPGQPPKLLIYDASNLVSGIPPRFSGSGSGTDFTLNIHPVEKVDAATYHCQQSTEDPWTFGGGTKLEIKGGGGSGGGGSGGGGSQVQLQQSGAELVRPGSSVKISCKASGYAFSSYWMNWVKQRPGQGLEWIGQIWPGDGDTNYNGKFKGKATLTADESSSTAYMQLSSLASEDSAVYFCARRETTTVGRYYYAMDYWGQGTTVTVSSGGGSSAPELLGGPSVFLFPPKPKDTLMISRTPEVTCVVVDVSHEDPEVKFNWYVDGVEVHNAKTKPREEQYNSTYRVVSVLTVLHQDWLNGKEYKCKVSNKALPAPIEKTISKAKGQPREPQVYTKPPSREEMTKNQVSLSCLVKGFYPSDIAVEWESNGQPENNYKTTVPVLDSDGSFRLASYLTVDKSRWQQGNVFSCSVMHEALHNHYTQKSLSLSPGSTGSEVQLQQSGPELVKPGASVKISCKTSGYTFTEYTMHWVKQSHGKSLEWIGGISPNIGGTSYNQKFKGKATLTVDKSSSTAYMELRSLTSEDSAVYYCARRGGSFDYWGQGTTLTVSSVEGGSGGSGGSGGSGGVDDIVMTQSPATLSVTPGDRVSLSCRASQSISDYLHWYQQKSHESPRLLIKYASQSISGIPSRFSGSGSGSDFTLSINSVEPEDVGVYYCQNGHSFPLTFGAGTKLELK
notes: Single chain F1 format; also called bi-specific antibody NKp46-3 (F1)
B7: CD19-F1-NKp46-2 (bispecific antibody)
chain: DIQLTQSPASLAVSLGQRATISCKASQSVDYDGDSYLNWYQQIPGQPPKLLIYDASNLVSGIPPRFSGSGSGTDFTLNIHPVEKVDAATYHCQQSTEDPWTFGGGTKLEIKGGGGSGGGGSGGGGSQVQLQQSGAELVRPGSSVKISCKASGYAFSSYWMNWVKQRPGQGLEWIGQIWPGDGDTNYNGKFKGKATLTADESSSTAYMQLSSLASEDSAVYFCARRETTTVGRYYYAMDYWGQGTTVTVSSGGGSSAPELLGGPSVFLFPPKPKDTLMISRTPEVTCVVVDVSHEDPEVKFNWYVDGVEVHNAKTKPREEQYNSTYRVVSVLTVLHQDWLNGKEYKCKVSNKALPAPIEKTISKAKGQPREPQVYTKPPSREEMTKNQVSLSCLVKGFYPSDIAVEWESNGQPENNYKTTVPVLDSDGSFRLASYLTVDKSRWQQGNVFSCSVMHEALHNHYTQKSLSLSPGSTGSEVQLQESGPGLVKPSQSLSLTCTVTGYSITSDYAWNWIRQFPGNKLEWMGYITYSGSTSYNPSLESRISITRDTSTNQFFLQLNSVTTEDTATYYCARGGYYGSSWGVFAYWGQGTLVTVSAVEGGSGGSGGSGGSGGVDDIQMTQSPASLSASVGETVTITCRVSENIYSYLAWYQQKQGKSPQLLVYNAKTLAEGVPSRFSGSGSGTQFSLKINSLQPEDFGSYYCQHHYGTPWTFGGGTKLEIK
notes: Single chain F1 format; also called bi-specific antibody NKp46-2 (F1)

Target: T1, NKp46 mutant Supp8 (human, UniProt O76036 22-304)
T1 construct: Expressed in transfected HEK293T cells; also called supplementary mutant Supp8
T1 chain: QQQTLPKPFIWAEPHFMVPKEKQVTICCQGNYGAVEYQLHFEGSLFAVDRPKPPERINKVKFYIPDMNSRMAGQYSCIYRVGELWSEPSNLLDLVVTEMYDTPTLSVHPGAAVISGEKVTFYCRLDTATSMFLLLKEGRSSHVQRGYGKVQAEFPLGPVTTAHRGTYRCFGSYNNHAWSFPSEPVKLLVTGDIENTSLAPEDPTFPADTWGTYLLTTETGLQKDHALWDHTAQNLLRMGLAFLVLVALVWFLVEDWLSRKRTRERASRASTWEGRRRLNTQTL
Assay: flow cytometry on HEK293T cells transfected with NKp46 mutant Supp8 (P132A, E133A; printed 'Mutant S8'), antibody titrated 0.001-1 ug/ml

Binder | binding result
B1 | binds
B2 | binds

Target: T2, NKp46 mutant 19 (human, UniProt O76036 22-304)
T2 construct: Expressed in transfected HEK293T cells
T2 chain: T1 chain with A111P, A112E, I114A, S115A
Assay: flow cytometry on HEK293T cells transfected with NKp46 mutant 19 (I135A, S136A), antibody titrated 0.001-1 ug/ml

Binder | binding result
B1 | binds
B2 | binds

Target: T3, human FcRn (Example 10) (human, UniProt P55899 24-297; P61769 21-119, limits assumed)
T3 construct: Construct not described; Beta-2-microglobulin is not mentioned; also called recombinant FcRn proteins
Assay: SPR, FcRn immobilized on CM5, Steady State

T3 sequence (P55899 24-297 limits assumed, form in doubt, chain 1 of 2): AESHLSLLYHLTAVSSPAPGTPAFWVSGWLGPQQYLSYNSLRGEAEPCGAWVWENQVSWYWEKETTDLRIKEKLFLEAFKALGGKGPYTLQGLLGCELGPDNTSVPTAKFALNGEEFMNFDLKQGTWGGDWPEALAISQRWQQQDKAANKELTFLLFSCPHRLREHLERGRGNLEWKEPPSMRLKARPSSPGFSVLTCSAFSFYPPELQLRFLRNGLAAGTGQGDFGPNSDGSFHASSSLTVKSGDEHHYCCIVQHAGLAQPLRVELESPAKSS
T3 sequence (P61769 21-119 limits assumed, form in doubt, chain 2 of 2): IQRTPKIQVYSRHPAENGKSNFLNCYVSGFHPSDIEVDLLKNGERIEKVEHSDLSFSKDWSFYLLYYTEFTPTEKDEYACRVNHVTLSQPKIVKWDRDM

Binder | Kd
B3 | 858 nM
B4 | 712 nM

Target: T4, Human NKp46 recombinant proteins (human, UniProt O76036 22-258)
T4 construct: also called recombinant human NKp46 proteins
Assay: SPR, bispecific captured on Protein-A chip, human NKp46 injected, 1:1 kinetic model
Method: SPR measurements were performed on a Biacore T100 apparatus (Biacore GE Healthcare) at 25° C. In all Biacore experiments HBS-EP+(Biacore GE Healthcare) and NaOH 10 mM served as running buffer and regeneration buffer respectively. Sensorgrams were analyzed with Biacore T100 Evaluation software. Protein-A was purchase from (GE Healthcare). Human NKp46 recombinant proteins were cloned, produced and purified at Innate Pharma.
Protein-A proteins were immobilized covalently to carboxyl groups in the dextran layer on a Sensor Chip CM5. The chip surface was activated with EDC/NHS (N-ethyl-N′-(3-dimethylaminopropyl) carbodiimidehydrochloride and N-hydroxysuccinimide (Biacore GE Healthcare)). Protein-A was diluted to 10 μg/ml in coupling buffer (10 mM acetate, pH 5.6) and injected until the appropriate immobilization level was reached (i.e. 2000 RU). Deactivation of the remaining activated groups was performed using 100 mM ethanolamine pH 8 (Biacore GE Healthcare).
Monovalent affinity study was done following a regular Capture-Kinetic protocol recommended by the manufacturer (Biacore GE Healthcare kinetic wizard). Seven serial dilutions of human NKp46 recombinant proteins, ranging from 6.25 to 400 nM were sequentially injected over the captured Bi-Specific antibodies and allowed to dissociate for 10 min before regeneration. The entire sensorgram sets were fitted using the 1:1 kinetic binding model.

Binder | Kd | koff | kon
B5 | 4.85 nM | 0.000653 s⁻¹ | 135000 M⁻¹ s⁻¹
B6 | 9.14 nM | 0.000644 s⁻¹ | 70500 M⁻¹ s⁻¹
B3 | 32 nM | 0.00669 s⁻¹ | 207000 M⁻¹ s⁻¹
B4 | 30 nM | 0.011 s⁻¹ | 368000 M⁻¹ s⁻¹
B7 | 8.93 nM | 0.00145 s⁻¹ | 162000 M⁻¹ s⁻¹
